Changes are numbered by the printed parent chain. Values belong to the binder of their own block, whether it stands above or below them.
What was measured:
[1] = molecular target: T1, KW27-8 (human CD39 mutant, C-terminal EGFP) (human, UniProt P49961 1-510); assay: FACS, mutant-EGFP on HEK293F cells
T1 construct: expressed on HEK293F cells; not shown: C-terminal EGFP fusion (vector pCMV3-GFPSpark)
T1 chain: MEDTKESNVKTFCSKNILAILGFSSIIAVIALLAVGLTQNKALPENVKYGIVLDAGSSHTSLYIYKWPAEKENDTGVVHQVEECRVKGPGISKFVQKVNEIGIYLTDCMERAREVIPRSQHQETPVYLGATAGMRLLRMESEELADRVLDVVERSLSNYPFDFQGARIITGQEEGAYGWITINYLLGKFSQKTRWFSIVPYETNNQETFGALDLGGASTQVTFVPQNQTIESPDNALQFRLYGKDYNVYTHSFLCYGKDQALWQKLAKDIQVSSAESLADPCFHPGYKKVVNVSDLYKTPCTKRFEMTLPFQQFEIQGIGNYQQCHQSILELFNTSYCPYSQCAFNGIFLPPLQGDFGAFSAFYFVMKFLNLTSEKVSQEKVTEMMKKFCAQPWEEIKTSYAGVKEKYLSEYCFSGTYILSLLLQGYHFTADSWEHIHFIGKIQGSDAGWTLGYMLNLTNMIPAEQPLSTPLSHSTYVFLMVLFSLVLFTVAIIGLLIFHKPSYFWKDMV
Method: (§1) Briefly, the human CD39 mutants were generated by gene synthesis and then cloned into an expression vector pCMV3-GFPSpark. The vectors containing the validated mutated sequences were prepared and transfected into HEK293F cells. Three days post transfection, the cells were collected to testing EGFP for transgene expression. A range of dosages of antibodies (start from 100 nM, 3-folds dilution, 11 points) were tested on the 20 generated mutants and stained by AlexFluor647 labelled anti-hIgG by FACS. Antibody binding was descripted as relative binding which is derived from AlexFluor647 intensity divided by GFP intensity.

[2] = molecular target: T2, KW27-3 (human CD39 mutant, C-terminal EGFP) (human, UniProt P49961 1-510); assay: FACS, mutant-EGFP on HEK293F cells
T2 construct: expressed on HEK293F cells; not shown: C-terminal EGFP fusion (vector pCMV3-GFPSpark)
T2 chain: T1 chain with E110A, R113T, E114A, S273A, A275N, S277I, A279R
Method: as §1

[3] = molecular target: T3, KW27-20 (human CD39 mutant, C-terminal EGFP) (human, UniProt P49961 1-510); assay: FACS on transfected HEK293F cells, relative binding = AlexaFluor647 / GFP
T3 construct: expressed on HEK293F cells; not shown: C-terminal EGFP fusion (vector pCMV3-GFPSpark)
T3 chain: T1 chain with R138A, M139A, E142K, S273A, A275N, S277I, A279R
Method: as §1

[4] = molecular target: T4, KW27-6 (human CD39 mutant, C-terminal EGFP) (human, UniProt P49961 1-510); assay: as above
T4 construct: expressed on HEK293F cells; not shown: C-terminal EGFP fusion (vector pCMV3-GFPSpark)
T4 chain: T1 chain with Q96A, N99A, E143A, R147E, S273A, A275N, S277I, A279R
Method: as §1

binding result [1]: binds | binding result [2]: binds | binding result [3]: binds | binding result [4]: no binding
B1: Antibody 9-8B (antibody, V domains shown)
VH: QIQLVQSGPELKKPGETVKISCKASGYTFTHYGMNWVKQAPGKGLKWMGWINTYTGELTYADDFKGRFAFSLETSASTAYLQINNLKNEDTATYFCARRAYYRYDYVMDYWGQGTSVTVSS
VL: DIVMTQSQKFMSTSVGDRVSVTCKASHNVGTNVAWYQQKPGQSPKALIYSASYRYSGVPGRFTGSGSGTDFTLTISNVQSEDLAEYFCHQYNNYPYTFGGGTKLEIK

binding result [1]: binds | binding result [2]: binds | binding result [4]: no binding
B2: hu23.H5L5 (antibody, V domains shown)
VH: QVQLVQSGAEVKKPGASVKVSCKASGYNLKDTFLHWVRQAPGQGLEWMGRIDPANGNIKYDPKFQGRVTITADTSANTAYMELISLRSEDTAVYYCANSPYYYGSGYRIFDVWGQGTTVTVSS
VL: QIVLTQSPATLSLSPGERATLSCSAFSSVNYMHWYQQKPGQAPRLLIYTTSNLASGIPTRFSGSGSGTSYTLTISSLEPEDFAVYYCQQRSTYPFTFGQGTKLEIK
notes: humanized c23

binding result [1]: binds | binding result [2]: binds | binding result [3]: binds | binding result [4]: binds
B3: c35 (antibody, V domains shown)
VH: EVRLQQSGAELVKPGASVKLSCTASGFNIEDTYVHWMKQRPEQGLEWIGRIDPAIDNSKYDPKFQGKATITAVSSSNTAYLQLSSLTSEDTAVYYCALYDGYNVYAMDYWGQGTSVTVSS
VL: DIVMTQAAFSNPVTLGTSASISCRSSKNLLHSNGITYLYWYLQRPGQSPQLLIYRASTLASGVPNRFSGSESGTDFTLRISRVEAEDVGVYYCAQLLELPHTFGGGTKLEIK
notes: its making is not described; also called chimeric antibody c35

binding result [1]: binds | binding result [2]: binds | binding result [3]: no binding | binding result [4]: binds
B4: Antibody T895 (antibody, V domains shown)
VH: EVQLQQSGPELVKPGASVKMSCKASGYTFTDYNMHWVKQSHGRTLEWIGYIVPLNGGSTFNQKFKGRATLTVNTSSRTAYMELRSLTSEDSAAYYCARGGTRFAYWGQGTLVTVSA
VL: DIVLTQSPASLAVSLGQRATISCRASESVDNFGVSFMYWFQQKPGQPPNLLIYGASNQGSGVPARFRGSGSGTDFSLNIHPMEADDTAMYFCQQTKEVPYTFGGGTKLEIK
notes: also called 31895

binding result [1]: binds | binding result [2]: binds | binding result [3]: binds | binding result [4]: binds
B5: c34 (antibody, V domains shown)
VH: EIQVQQSGPELVKPGASVKVSCKASGYSFTDYNMYWVKQSHGKSLEWIGFIDPYNGYTSYNQKFKGKATLTIDKSSSTAFMHLNSLTSEDSAVYYCAIYGYDDAYYFDYWGQGTTLTVSS
VL: QIVLTQSPAIMSASPGEKVTITCSATSSVSYMHWFRQKPGTSPKLWIYSTSNLASGVPARFSGSGSGTSYSLTISRMAAEDAATYYCQQRITYPFTFGSGTKLEIT
notes: its making is not described; also called chimeric antibody c34

Reference: patent US20210388105A1 (ELPISCIENCE SUZHOU BIOPHARMA, published 2021)
